Test results taken from publication PMC2867295 (The Journal of Cell Biology, 2010).

Molecular target: mouse calmodulin, bacterially expressed and biotinylated (mouse, UniProt P0DP26 1-149, biotinylated (EZ-link Sulfo-NHS-LC-Biotinylation kit))
Assay: far-Western, overlay or dot blot

B1: Pcdp1-2, fragment aa 447–530 of mouse Pcdp1 with the uncharacterized predicted CaM-binding motif (domain or fragment)
chain: PLVNNVWLTRHRAQRRFQQAARKIMLERRLLSMLGAIRGMDKESILRKIIQVNGKLIQGENPSRGRRAHLKQEDNIWRYSLESE
- binding result: binds
